Source: the DeepSol protein solubility set

assay: soluble on expression in E. coli; label from the status in PepcDB or PDB records

Soluble on expression in E. coli, not soluble:
MGSDKIHHHHHHMLPFLRSELARCQPYHPNPGGTGMAMDILDTNECPYDLPTDLKQTLADRYVEAIASNRYPDGSHTDLKAAIVDYLSEQTAGQWQPGPEHVTVGNGSDELIRSILIATCLGGQGSVLVAEPTFSMYGIVAETLGIPVVRIGRDPQTWEMDLAAAETAITQTEGTPVRLCFVVHPNSPTANPLTEAEKDWLRQVPPQILVVIDEAYFEFSGETLLAELPQHPNWLITRTFSKALRLAAHRVGYGIGDPQLIAALEAIRLPYNLPSVAQLAATLALEARSQLLSAIPRLITERDRLYRKLQVVSQLQVWPSASNFLFLKTQSSSQTAALAAQLKAQGTLVRHTADGLRITIGSPAENERTLAHLQTAITQSLPATV
MSLTKNKFDNRADKLGESWDLLNKEGRKIGLKHRGEPFKPGEWHSLVNASIFNYQHEILMQQRSFNKIGRPGEWDFETGGSVLASEDSLTAIKREVKEEVGLELNFSEENFVETFRNWPVFDNWYVIKADLSIKDIRIQKSELEQAKFMPFDQAIKYLSSNYLPYLLKAYKKLFGGENEGHHHHHH
MSLINRKDALPITRQCRLLDLSRSGFYYTPRPVSAKDLELMRQIDEIHLAFPFYGSRKIRDELWARKHNVGLDKVRRLMRRMGIEALYVKPRLSLSYPEHVKYPYLLRRLEINRANQVWITDITYIPMAKGFCYLVAIMDEGHHHHHH
MNADGWLADTRSSYDTVAVSYADQLRGALAGTPYLRAALELFAGMIHTAGGGPVADVGCGPGHVTAHLHGLGVDAFGIDLSPAMIDVARRDHPDLRFEVGSMTDLNLADASVTALLAFWSLIHVPDDAIPAVFGHFRRVVRPGGPLLLGFHIGDESRLKTEGYGGHPMKVHVHHRQPVQVTAWLRDAGFTVEAQWLLGLDGHIPGAVLFAHRQSLEHHHHHH
MYLACLAKFSQNVELRKMLFRTQDMYLVEASGNDAIWGNGIWKEDKRSDDVANWHGTNYLGEILDRIRGELIGKPEFAAEKEAVQLESLEQRIQMLMA
MYIGIDLGTSGVKVILLNEQGEVVASQTEKLTVSRPHPLWSEQDPEQWWQATDRAMKALGDQHSLQDVKALGIAGQMHGATLLDAQQRVLRPAILWNDGRCAQECTLLEARVPQSRVITGNLMMPGFTAPKLLWVQRHEPEIFRQIDKVLLPKDYLRLRMTGEFASDMSDAAGTMWLDVAKRDWSDVMLQACDLSRDQMPALYEGSEITGALLPEVAKAWGMATVPVVAGGGDNAAGAVGVGMVDANQAMLSLGTSGVYFAVSEGFLSKPESAVHSFCHALPQRWHLMSVMLSAASCLDWAAKLTGLCNVPALIAAAQQADESAEPVWFLPYLSGERTPHNNPQAKGVFFGLTHQHGPNELARAVLEGVGYALADGMDVVHACGIKPQSVTLIGGGARSEYWRQMLADISGQQLDYRTGGDVGPALGAARLAQIAANPEKSLIELLPQLPLEQSHLPDAQRYAAYQPRRETFRRLYQQLLPLMA
TPDADKKGAVFALDQEPEAQAAVVALDPLSGAVKAMVGGYDFRKSQFNRALQAKRNPGSAFKPLIYAAALDKGITPATIFDDSPVEYESGKEKAWKPKNYDNIYRGNVTMREALTNSINVVSVKILEQIGVDYAIEYAKKLGITSPLSANLTLALGSSSLTPLELTSAYAVFASGGYRTTPYFVTRVEDAEGRTLEETAPPVIPRFSVMTSAESSPLEASPAPPATAGDSASTAVPVIAPETAYIMTNLMESVVQSGTGQRARAVGRPVAGKTGTTNDMKDAWFVGYIPQLVAGVWVGYDQERSLGAGGSGGQAAAPIWTEFMRRAVAGIPSRDF
MKRQRLVDKEWILQFPIEYFIHKEVHELNSTQAQRLVSLFKNGCETAYIARYRGDVHGYLAPEKIRKAMEAYVDAKNLNNKVSSAISTVTAKVAGAQEKIIVTERFKRCEEFDEVTDISKEYSTGTRKTKANIARALGLEPPAQSILDGNFVDFKSLLSNGLKTVKDVEEHLKICLADLINRDEEVRKVSANIDILKKECRVSAKLSREAEKNRKDLEKRGIIEKYKNFIGEKWNAEDIRDHTVSALNKGFDEGIITWKIECEFNDAKYIHPFSRKSVYFGMKNFYQEALAYSIKNYFIPRIERKMANHLKDKAKDRSIVLFGENVDQLLSQEGIRDKFVIALDPGRSKIKTAFLKPTGEVVDMSSFSIYGTRFDGGGVDLLKKWSQQTERKDIVFAIGNGTNTYNTQIAVSDMINSNVFPKEINVSYCIVPEHGASKYSCTPSAIEEFGENAEITEISAVSIGRRLIDPMSEYVKIEPQHLGKGQYQLSVDPKKLNESLLNVVRDRVSFNGVDLNTASKNLLQRINGLNEKTAKEIVQYREQNGRFRSRAELKEVKGIGALTFQQCAGFLTVSRPDDAEDGPPKKKFKKSSTSKEWNPFDETIVHPDDYRTGESLLGKLNVSIEDITGRIKSFSISRLTAEEAKVLNLLQNLTLKTKMKPPPPLRTKVGQIRDLAEGQRFTGTVSNKTDFGVFIDIGVGQDGLAHISHFKDGHYSLMLPSVNDSVEVVIDKIREDGKISLSPVY
MVFDAIVVTDLQGFIIDWNKGSETLYGYSKEQAIGQPVNMLHVPGDTEHITSEVISAVENQGKWTGEIRMLHKDGHIGWIESMCVPIYGENYQMVGALGINRDITKRKKELEHHHHHH
MGSDKIHHHHHHMLDPIEFIHNASSISKKSMNRLKLKTNPFSEKPIRGNTKFFVGRTSELSEIADILGAAQYGSVANAAIVGTKGIGKSSILNILYYASKRHNHWVVELEASQITARQFLIQLMYGIIKDNLFSVDGTLSSDYMKHSQKIIEIYKRLSNYSDKTPVHYPREKIERDLKYLLNEVKEENKLCVILIDEADQFAKRSCLGLLQFFHSFLYEDDILTFLAGPPTMVEDLTKISPAIRDRIPKIINMPPLTKEEAYDLIKRRLEDSQITGAKGYQPFSEQSIEKIIEECDGIPRRIIMTCSEAVSLGLKNGVDEIDDEIARNAMKNLGISVGHQILNHLTPAQSKIIKAMAELGGSSTVTELSGILNNSTGTIGTHLSDIYEMGYIYKERDGYNVYYTLSKELKDVLITKEDIS
GPGSMPSSSLSQSSAPRQPPLGDSGECRCSTLPPKPPLAGVEEPQPSDAEDPIPFLATMSMNQVGFLHARKCTRRDLLGTSLGNCPASENVLANGASHGIEATPLPGSRSATSTSFTSPTSAPLAPMAESECDVSYLEQMLMQIMDAAKAFANTSQAPSCDTAPQSADTLPACEYLLRKCFHFDTGAFKPRQQEVCLSVLAGVNTLAVCPTGWGKSLCFQFPMLVHRLLFQCRYTRWCRQAATAPAAAQQSSETAVKEGQTGASRFAGALPSAGLPAHLFSRFCVVVSPLLALMEDQAEKINAVDHLSAFVLSAKVGADREARVLAQLESPVCPLDILFVSPEN

Soluble on expression in E. coli, soluble:
MCEISVVMPVYNAEMHIKDAIESVLEQSFVDFEFILIDDGSTDHTSSIIQSYNDKRVRLIQNSHNFIESLNLGIENSLGKYMARMDGDDIMHIDRLKIQYAIMQEYPDVTVCGTWMNSIGTYSQTNGLLSTLSGWVEQPLLKFTKGNFLFHPTTMIRMDFLKKNALKYENYPYAEDFKFWVEIAKSGGRFYIDSQPLLYYRISDSQVSSQKSSEQRATTESIINEVLEYLMELNKNEYPELAAAYGDLCKLYEKQLLTKCEVLTLFQTLFSKNEKKLNLLEHHHHHH
MITQNIESLNNIAKIQHAANTDYLTDLANRRAFFRSAESRIKEYINKKVPYCLAMIDVDFFKKVNDTYGHDSGDQVLKVIALYMRKHFGAGLTARLGGEEFAVLLHGLDADYLHNKLDDFRREIAVSSIPAGDTSISITLSLGVVFDSEDELSKQMNEADNALYAAKENGRNQIVVFGAELDDLEHHHHHH
GSMKPMGPNDYMVIGLARIDDRLIHGQVATRWTKETNVSRIIVVSDEVAADTVRKTLLTQVAPPGVTAHVVDVAKMIRVYNNPKYAGERVMLLFTNPTDVERLVEGGVKITSVNVGGMAFRQGKTQVNNAVSVDEKDIEAFKKLNARGIELEVRKVSTDPKLKMMDLISKIDK
